Columns and labels:
[1] = molecular target: IL-22R1a extracellular domain (ECD) (UniProt Q8N6P7); experiment: binding ELISA on plate-coated IL-22R1a ECD, relative to Reference Standard (100%); stored -20 C, 24 months
[2] = molecular target: IL-22R1a extracellular domain (ECD) (UniProt Q8N6P7); experiment: binding ELISA on plate-coated IL-22R1a ECD, relative to Reference Standard (100%); stored -20 C, 12 months
[3] = molecular target: IL-22R1a extracellular domain (ECD) (UniProt Q8N6P7); experiment: potency assay (binding ELISA on plate-coated IL-22R1a ECD), relative to reference standard (100%); stored 5 C, 3 months
[4] = molecular target: IL-22R1a extracellular domain (ECD) (UniProt Q8N6P7); experiment: potency assay (binding ELISA on plate-coated IL-22R1a ECD), relative to reference standard (100%); stored 5 C, 42 months
[5] = molecular target: IL-22R1a extracellular domain (ECD) (UniProt Q8N6P7); experiment: potency assay (binding ELISA on plate-coated IL-22R1a ECD), relative to reference standard (100%); stored 5 C, 6 months

Sequence of UniProt Q8N6P7 (Q8N6P7 16-228 limits assumed): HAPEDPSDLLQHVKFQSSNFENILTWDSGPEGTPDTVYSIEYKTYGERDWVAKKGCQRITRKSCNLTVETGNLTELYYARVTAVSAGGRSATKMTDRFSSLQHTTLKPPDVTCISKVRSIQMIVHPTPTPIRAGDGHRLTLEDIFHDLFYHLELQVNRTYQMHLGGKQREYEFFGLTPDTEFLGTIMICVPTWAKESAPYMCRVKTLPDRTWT

IL-22 Fc fusion protein
Potency by Binding Assay (% relative potency) (% relative potency) [1]: 97 | Potency by Binding Assay (% relative potency) (% relative potency) [2]: 91 | Potency (% relative potency) (% relative potency) [3]: 73 | Potency (% relative potency) (% relative potency) [4]: 59 | Potency (% relative potency) (% relative potency) [5]: 100

Source: patent US20200353049A1
